Biological target: PlsB from Themomonas haemolytica (Themomonas haemolytica)
Assay: cryo-EM structure

“PlsB from Themomonas haemolytica (enzyme)” showed a stoichiometry N of 2.
